Measurements as given in US20120172295A1 (INDIANA UNIVERSITY RESEARCH AND TECHNOLOGY, published 2012).
Like-named read-outs stand apart in the source and are kept apart here. Positions of bridges follow the written chain, without caps; N, C: chain ends. Non-standard residues stand in square brackets, D forms with d. Groups on a side chain read outwards from the residue. No end group written: not given here. *: point of attachment. Palmitoyl = CCCCCCCCCCCCCCCC(=O)*; Aib = CC(C)(N)C(=O)O

Experiments:
Experiment in all cases: cell-based or functional assay
[1] = molecular target: T1, glucagon receptor (UniProt P47871 26-477, limits assumed)
[2] = molecular target: T2, GLP-1 receptor (UniProt P43220 24-463, limits assumed)
[3] = molecular target: T1, glucagon receptor; remark: listed apart in the source
[4] = molecular target: T2, GLP-1 receptor; remark: listed apart in the source
[5] = molecular target: T3, GIP receptor (UniProt P48546 22-466)
T3 sequence (looked up): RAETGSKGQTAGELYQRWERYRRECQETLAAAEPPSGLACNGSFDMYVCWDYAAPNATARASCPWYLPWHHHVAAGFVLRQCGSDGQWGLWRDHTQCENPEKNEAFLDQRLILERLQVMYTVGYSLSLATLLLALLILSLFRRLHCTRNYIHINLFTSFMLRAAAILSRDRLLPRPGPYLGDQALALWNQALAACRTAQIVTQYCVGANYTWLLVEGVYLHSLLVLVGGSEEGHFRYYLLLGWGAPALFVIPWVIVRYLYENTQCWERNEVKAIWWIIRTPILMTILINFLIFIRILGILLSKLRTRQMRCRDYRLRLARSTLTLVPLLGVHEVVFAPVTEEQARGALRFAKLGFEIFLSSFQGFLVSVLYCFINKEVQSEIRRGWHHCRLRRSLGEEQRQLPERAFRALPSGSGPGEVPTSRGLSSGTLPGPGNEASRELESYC

[6] = molecular target: T1, glucagon receptor; remark: listed apart in the source
[7] = molecular target: T2, GLP-1 receptor; remark: listed apart in the source
[8] = molecular target: T1, glucagon receptor; remark: listed apart in the source
[9] = molecular target: T2, GLP-1 receptor; remark: listed apart in the source
[10] = molecular target: T2, GLP-1 receptor; remark: listed apart in the source
[11] = molecular target: T1, glucagon receptor; remark: listed apart in the source
[12] = molecular target: T2, GLP-1 receptor; remark: listed apart in the source
[13] = molecular target: T3, GIP receptor; remark: listed apart in the source
[14] = molecular target: T1, glucagon receptor; remark: listed apart in the source
[15] = molecular target: T2, GLP-1 receptor; remark: listed apart in the source
[16] = molecular target: T3, GIP receptor; remark: listed apart in the source

T1 sequence (P47871 26-477 limits assumed): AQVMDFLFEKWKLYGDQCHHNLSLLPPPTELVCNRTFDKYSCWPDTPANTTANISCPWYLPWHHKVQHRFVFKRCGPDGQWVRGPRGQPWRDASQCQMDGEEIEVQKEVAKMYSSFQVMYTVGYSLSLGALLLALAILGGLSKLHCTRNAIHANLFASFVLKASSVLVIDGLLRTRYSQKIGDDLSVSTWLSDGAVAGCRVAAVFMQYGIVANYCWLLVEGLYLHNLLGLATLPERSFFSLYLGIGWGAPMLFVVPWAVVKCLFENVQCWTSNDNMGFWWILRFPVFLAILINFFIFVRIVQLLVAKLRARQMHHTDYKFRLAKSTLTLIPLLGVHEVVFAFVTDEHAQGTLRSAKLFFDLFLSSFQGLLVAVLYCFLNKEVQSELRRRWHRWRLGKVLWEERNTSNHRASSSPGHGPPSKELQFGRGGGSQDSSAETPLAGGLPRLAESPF

B1: Glucagon (1-29a) Aib2 Lys10-Trp-C16 Aib16 Aib20 Cys24-40 kD (peptide)
peptide: H[Aib]QGTFTSDK([Trp-Palmitoyl])SKYLD[Aib]RRA[Aib]DFVC(PEG 40 kDa)WLMNT-NH2
With B1 the EC50 [1] was 2.37 nM and the EC50 [2] was 0.6 nM.

B2: mt-358 (peptide)
peptide: Y[Aib]QGTFISDYSIYLDKQAA[Aib]EFVNWLLAGGPSSGAPPPSK(Palmitoyl)-NH2
B2 was tested, and the “% Relative activity” value [3] was 710%, the “% Relative activity” value [4] was 11.9% and the “% Relative activity” value [5] was 314%.

B3: Glucagon (1-29a) Aib2 Lys10-Trp-C16 Aib16 Aib20 Cys24 (peptide)
peptide: H[Aib]QGTFTSDK([Trp-Palmitoyl])SKYLD[Aib]RRA[Aib]DFVCWLMNT-NH2
modifications: N-terminus assumed
SMILES: CCCCCCCCCCCCCCCC(=O)N[C@@H](Cc1c[nH]c2ccccc12)C(=O)NCCCC[C@H](NC(=O)[C@H](CC(=O)O)NC(=O)[C@H](CO)NC(=O)[C@@H](NC(=O)[C@H](Cc1ccccc1)NC(=O)[C@@H](NC(=O)CNC(=O)[C@H](CCC(N)=O)NC(=O)C(C)(C)NC(=O)[C@@H](N)Cc1c[nH]cn1)[C@@H](C)O)[C@@H](C)O)C(=O)N[C@@H](CO)C(=O)N[C@@H](CCCCN)C(=O)N[C@@H](Cc1ccc(O)cc1)C(=O)N[C@@H](CC(C)C)C(=O)N[C@@H](CC(=O)O)C(=O)NC(C)(C)C(=O)N[C@@H](CCCNC(=N)N)C(=O)N[C@@H](CCCNC(=N)N)C(=O)N[C@@H](C)C(=O)NC(C)(C)C(=O)N[C@@H](CC(=O)O)C(=O)N[C@@H](Cc1ccccc1)C(=O)N[C@H](C(=O)N[C@@H](CS)C(=O)N[C@@H](Cc1c[nH]c2ccccc12)C(=O)N[C@@H](CC(C)C)C(=O)N[C@@H](CCSC)C(=O)N[C@@H](CC(N)=O)C(=O)N[C@H](C(N)=O)[C@@H](C)O)C(C)C
B3 gave an EC50 [1] of 2.06 nM and an EC50 [2] of 1.15 nM.

B4: Glucagon R12 K29 (peptide)
peptide: HSQGTFTSDYSRYLDSRRAQDFVQWLMNK
In the case of B4, the “cAMP induction EC50” value [6] is reported as 0.81 nM and the “cAMP induction EC50” value [7] is reported as 0.41 nM.

B5: peptide of SEQ ID NO: 555 (peptide)
peptide: YSQGTFTSDYSKYLDEQAAKEFVNWLMNGGPSSGAPPPS-NH2
modifications: lactam 16-20; N-terminus assumed
SMILES: CSCC[C@H](NC(=O)[C@H](CC(C)C)NC(=O)[C@H](Cc1c[nH]c2ccccc12)NC(=O)[C@H](CC(N)=O)NC(=O)[C@@H](NC(=O)[C@H](Cc1ccccc1)NC(=O)[C@H](CCC(=O)O)NC(=O)[C@@H]1CCCCNC(=O)CC[C@H](NC(=O)[C@H](CC(=O)O)NC(=O)[C@H](CC(C)C)NC(=O)[C@H](Cc2ccc(O)cc2)NC(=O)[C@H](CCCCN)NC(=O)[C@H](CO)NC(=O)[C@H](Cc2ccc(O)cc2)NC(=O)[C@H](CC(=O)O)NC(=O)[C@H](CO)NC(=O)[C@@H](NC(=O)[C@H](Cc2ccccc2)NC(=O)[C@@H](NC(=O)CNC(=O)[C@H](CCC(N)=O)NC(=O)[C@H](CO)NC(=O)[C@@H](N)Cc2ccc(O)cc2)[C@@H](C)O)[C@@H](C)O)C(=O)N[C@@H](CCC(N)=O)C(=O)N[C@@H](C)C(=O)N[C@@H](C)C(=O)N1)C(C)C)C(=O)N[C@@H](CC(N)=O)C(=O)NCC(=O)NCC(=O)N1CCC[C@H]1C(=O)N[C@@H](CO)C(=O)N[C@@H](CO)C(=O)NCC(=O)N[C@@H](C)C(=O)N1CCC[C@H]1C(=O)N1CCC[C@H]1C(=O)N1CCC[C@H]1C(=O)N[C@@H](CO)C(N)=O
For B5, the EC50 [8] was 0.044 nM and the EC50 [9] was 0.062 nM.

B6: E15, E16 Gluc-NH2 (peptide)
peptide: HSQGTFTSDYSKYLEERRAQDFVQWLMNT-NH2
With B6 the “Percent Potency Relative to Native Ligand” value [10] was 9.2%.

B7: mt-364 (peptide)
peptide: HXQGTFTSDYSKYLDEQAAKEFIAWLMNGGPSSGAPPPSK
modifications: acylated Lys at 40
For B7, the “% Relative activity” value [11] was 350%, the “% Relative activity” value [12] was 355% and the “% Relative activity” value [13] was 15.7%. The “% Relative activity” value [3] was 350%, the “% Relative activity” value [4] was 355% and the “% Relative activity” value [5] was 15.7%. For the same binder, the “% Relative activity” value [14] was 350%, the EC50 [14] was 0.0183 nM and the “% Relative activity” value [15] was 355%. The EC50 [15] was 7 pM and the “% Relative activity” value [16] was 15.7%.
